The results in this text go back to patent US20180105569A1 (INDIANA UNIVERSITY RESEARCH AND TECHNOLOGY, published 2018).

The chains are these.
T1: GIP receptor (UniProt P48546 22-466, limits assumed)
T1 sequence (looked up): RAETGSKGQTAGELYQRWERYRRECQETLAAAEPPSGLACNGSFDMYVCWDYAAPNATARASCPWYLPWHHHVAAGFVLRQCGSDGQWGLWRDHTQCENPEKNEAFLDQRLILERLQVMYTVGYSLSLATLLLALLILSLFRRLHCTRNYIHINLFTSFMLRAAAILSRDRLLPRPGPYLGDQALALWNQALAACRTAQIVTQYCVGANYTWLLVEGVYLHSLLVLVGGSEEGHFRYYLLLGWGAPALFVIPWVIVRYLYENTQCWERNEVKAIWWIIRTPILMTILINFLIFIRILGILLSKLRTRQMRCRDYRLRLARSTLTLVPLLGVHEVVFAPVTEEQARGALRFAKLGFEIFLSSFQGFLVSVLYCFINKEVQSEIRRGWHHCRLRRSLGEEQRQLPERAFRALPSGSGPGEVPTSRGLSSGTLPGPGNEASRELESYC

B1: peptide of SEQ ID NO: 148 (peptide)
peptide: Ac-[dH]AEGTFTSDK([γGlu-Palmitoyl])SKYLDERAAQDFVQWLLEGGPSSGAPPPS-NH2
SMILES: CCCCCCCCCCCCCCCC(=O)N[C@@H](CCC(=O)NCCCC[C@H](NC(=O)[C@H](CC(=O)O)NC(=O)[C@H](CO)NC(=O)[C@@H](NC(=O)[C@H](Cc1ccccc1)NC(=O)[C@@H](NC(=O)CNC(=O)[C@H](CCC(=O)O)NC(=O)[C@H](C)NC(=O)[C@@H](Cc1c[nH]cn1)NC(C)=O)[C@@H](C)O)[C@@H](C)O)C(=O)N[C@@H](CO)C(=O)N[C@@H](CCCCN)C(=O)N[C@@H](Cc1ccc(O)cc1)C(=O)N[C@@H](CC(C)C)C(=O)N[C@@H](CC(=O)O)C(=O)N[C@@H](CCC(=O)O)C(=O)N[C@@H](CCCNC(=N)N)C(=O)N[C@@H](C)C(=O)N[C@@H](C)C(=O)N[C@@H](CCC(N)=O)C(=O)N[C@@H](CC(=O)O)C(=O)N[C@@H](Cc1ccccc1)C(=O)N[C@H](C(=O)N[C@@H](CCC(N)=O)C(=O)N[C@@H](Cc1c[nH]c2ccccc12)C(=O)N[C@@H](CC(C)C)C(=O)N[C@@H](CC(C)C)C(=O)N[C@@H](CCC(=O)O)C(=O)NCC(=O)NCC(=O)N1CCC[C@H]1C(=O)N[C@@H](CO)C(=O)N[C@@H](CO)C(=O)NCC(=O)N[C@@H](C)C(=O)N1CCC[C@H]1C(=O)N1CCC[C@H]1C(=O)N1CCC[C@H]1C(=O)N[C@@H](CO)C(N)=O)C(C)C)C(=O)O
B2: peptide of SEQ ID NO: 144 (peptide)
peptide: Ac-[dY]AEGTFTSDK([γGlu-Palmitoyl])SKYLDERAAQDFVQWLLEAGPSSGAPPPS-NH2
SMILES: CCCCCCCCCCCCCCCC(=O)N[C@@H](CCC(=O)NCCCC[C@H](NC(=O)[C@H](CC(=O)O)NC(=O)[C@H](CO)NC(=O)[C@@H](NC(=O)[C@H](Cc1ccccc1)NC(=O)[C@@H](NC(=O)CNC(=O)[C@H](CCC(=O)O)NC(=O)[C@H](C)NC(=O)[C@@H](Cc1ccc(O)cc1)NC(C)=O)[C@@H](C)O)[C@@H](C)O)C(=O)N[C@@H](CO)C(=O)N[C@@H](CCCCN)C(=O)N[C@@H](Cc1ccc(O)cc1)C(=O)N[C@@H](CC(C)C)C(=O)N[C@@H](CC(=O)O)C(=O)N[C@@H](CCC(=O)O)C(=O)N[C@@H](CCCNC(=N)N)C(=O)N[C@@H](C)C(=O)N[C@@H](C)C(=O)N[C@@H](CCC(N)=O)C(=O)N[C@@H](CC(=O)O)C(=O)N[C@@H](Cc1ccccc1)C(=O)N[C@H](C(=O)N[C@@H](CCC(N)=O)C(=O)N[C@@H](Cc1c[nH]c2ccccc12)C(=O)N[C@@H](CC(C)C)C(=O)N[C@@H](CC(C)C)C(=O)N[C@@H](CCC(=O)O)C(=O)N[C@@H](C)C(=O)NCC(=O)N1CCC[C@H]1C(=O)N[C@@H](CO)C(=O)N[C@@H](CO)C(=O)NCC(=O)N[C@@H](C)C(=O)N1CCC[C@H]1C(=O)N1CCC[C@H]1C(=O)N1CCC[C@H]1C(=O)N[C@@H](CO)C(N)=O)C(C)C)C(=O)O

Numbered stars: 1 amine (or outer) side, 2 acyl side, 3 side chain; on linkers, the order of the positions; unused ones are H or OH. Square brackets hold non-standard residues; d marks the D form. Side chains are listed from the residue outwards. Ends that are not written are not given here. * marks the point of attachment. 4‑HPA = 4-hydroxyphenylacetic acid, O=C(Cc1ccc(O[*:3])cc1)[*:2]; C16 acyl = C16 fatty acyl group bound via a gamma-Glu spacer; γGlu = O=C(O)[C@H](CCC(=O)[*:2])N[*:1]; Palmitoyl = CCCCCCCCCCCCCCCC(=O)*

In one test the target is GLP-1 receptor (UniProt P43220 24-463, limits assumed). The test can be described thus: cell-based or functional assay.
As for Ac-[dH]AQGTFTSDK([γGlu-Palmitoyl])SKYLDERAAQDFVQWLLEAGPSSGAPPPS-NH2 [peptide of SEQ ID NO: 151], a half-maximal response (EC50 at GLP-1 Receptor (cAMP luciferase reporter, HEK293)) required 0.002 nM.
The same measure, in the same setting: the same measure for Ac-[dY]AQGTFTSDYSKYLDERAAQDFVQWLLEAGPSSGAPPPSK([γGlu-γGlu-Palmitoyl])G-NH2 [peptide of SEQ ID NO: 159]: 0.009 nM; for Ac-[dH]AEGTFTSDK([γGlu-Palmitoyl])SKYLDERAAQDFVQWLLEAGPSSGAPPPS-NH2 [peptide of SEQ ID NO: 154]: 0.004 nM; for Ac-[dY]ALGTFTSDK([γGlu-Palmitoyl])SKYLDERAAQDFVQWLLEGGPSSGAPPPS-NH2 [peptide of SEQ ID NO: 142]: 0.005 nM.
For the molecule [4‑HPA]AQGTFTSDK([γGlu-C16 acyl])SKYLDERAAQDFVQWLLEGGPSSGAPPPS-NH2 [peptide of SEQ ID NO: 156], a half-maximal effect (EC50 at GLP-1 Receptor (cAMP luciferase reporter, HEK293)) was put at 0.002 nM.
Still for that read-out and setting: with B1 the figure was 0.002 nM.
Take B2: the EC50 (in general, the concentration that produces a half-maximal response) at GLP-1 Receptor (cAMP luciferase reporter, HEK293) turned out to be 0.017 nM.

For another test, the target named is glucagon receptor (UniProt P47871 26-477, limits assumed). As to the kind of experiment: cell-based or functional assay.
Sequence of glucagon receptor (P47871 26-477 limits assumed): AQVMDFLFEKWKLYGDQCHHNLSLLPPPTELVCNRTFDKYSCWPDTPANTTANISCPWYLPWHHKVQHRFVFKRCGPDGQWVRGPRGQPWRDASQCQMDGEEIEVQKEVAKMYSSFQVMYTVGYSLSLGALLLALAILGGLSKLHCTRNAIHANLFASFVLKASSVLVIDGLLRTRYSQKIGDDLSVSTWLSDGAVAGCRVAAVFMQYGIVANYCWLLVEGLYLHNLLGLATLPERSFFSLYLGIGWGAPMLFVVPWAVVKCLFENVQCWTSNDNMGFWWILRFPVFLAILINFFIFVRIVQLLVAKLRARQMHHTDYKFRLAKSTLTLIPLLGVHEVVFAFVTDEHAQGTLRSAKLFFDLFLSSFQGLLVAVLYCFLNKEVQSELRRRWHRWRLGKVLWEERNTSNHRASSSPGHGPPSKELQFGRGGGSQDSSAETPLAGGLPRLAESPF
Regarding Ac-[dH]AQGTFTSDK([γGlu-Palmitoyl])SKYLDERAAQDFVQWLLEAGPSSGAPPPS-NH2 [peptide of SEQ ID NO: 151], a half-maximal effect (EC50 at Glucagon Receptor (cAMP luciferase reporter, HEK293)) was put at 0.003 nM.
Still for that read-out and setting: the same measure for Ac-[dY]AQGTFTSDYSKYLDERAAQDFVQWLLEAGPSSGAPPPSK([γGlu-γGlu-Palmitoyl])G-NH2 [peptide of SEQ ID NO: 159]: 0.04 nM; for Ac-[dH]AEGTFTSDK([γGlu-Palmitoyl])SKYLDERAAQDFVQWLLEAGPSSGAPPPS-NH2 [peptide of SEQ ID NO: 154]: 0.847 nM.
For the molecule Ac-[dY]ALGTFTSDK([γGlu-Palmitoyl])SKYLDERAAQDFVQWLLEGGPSSGAPPPS-NH2 [peptide of SEQ ID NO: 142], the midpoint of the response, the EC50 at Glucagon Receptor (cAMP luciferase reporter, HEK293), lay at 0.103 nM.
On the same count and under the same terms, the same measure for [4‑HPA]AQGTFTSDK([γGlu-C16 acyl])SKYLDERAAQDFVQWLLEGGPSSGAPPPS-NH2 [peptide of SEQ ID NO: 156]: 0.011 nM; for B1: 0.178 nM; for B2: 1.3 nM.

Another test deals with T1, GIP receptor. The test can be described thus: cell-based or functional assay.
As to Ac-[dH]AQGTFTSDK([γGlu-Palmitoyl])SKYLDERAAQDFVQWLLEAGPSSGAPPPS-NH2 [peptide of SEQ ID NO: 151], the “EC50 at GIP Receptor (cAMP luciferase reporter, HEK293)” value was 0.014 nM.
Still for that read-out and setting: with Ac-[dY]AQGTFTSDYSKYLDERAAQDFVQWLLEAGPSSGAPPPSK([γGlu-γGlu-Palmitoyl])G-NH2 [peptide of SEQ ID NO: 159] the figure was 0.08 nM; with Ac-[dH]AEGTFTSDK([γGlu-Palmitoyl])SKYLDERAAQDFVQWLLEAGPSSGAPPPS-NH2 [peptide of SEQ ID NO: 154], 0.024 nM.
Same read-out and setting: with Ac-[dY]ALGTFTSDK([γGlu-Palmitoyl])SKYLDERAAQDFVQWLLEGGPSSGAPPPS-NH2 [peptide of SEQ ID NO: 142] the figure was 0.002 nM; with [4‑HPA]AQGTFTSDK([γGlu-C16 acyl])SKYLDERAAQDFVQWLLEGGPSSGAPPPS-NH2 [peptide of SEQ ID NO: 156], 0.042 nM.
Same read-out and setting: the same measure for B2: 0.003 nM.
